Experimental data reported in US20150202287A1, “COMBINATION THERAPIES COMPRISING ANTI-ERBB3 AGENTS” (Merrimack Pharmaceuticals, Inc., priority 2012, published 2015).
pIC50: −log10 of the molar value.

Legend:
phospho-ErbB3 (pErbB3) [1] = assay: Cell signaling assay, pErbB3 ELISA, ZR75-30; format: cell-based; conditions: ZR75-30 cells, stimulation with 5 nM heregulin for 10 min; read-out: IC50, reduction of pErbB3 levels
Experimental: (§1) Cell lysates are probed for phospho-ErbB3 (pErbB3), and phospho-AKT (pAKT) by ELISA as described previously (Schoeberl et al, 2009) Inhibitor IC50 values are calculated by fitting dose-response data to a 4-parameter sigmoidal curve (GraphPad Prism®, GraphPad Software, Inc., La Jolla, Calif.).
(§2) CRL-1504®), cells were incubated with serial dilutions of either inhibitor for 15 minutes, 1 hour, 4 hours, and 24 hours followed by stimulation with 5 nM heregulin for 10 min Amounts of pAKT and pErbB3 were measured by ELISA essentially as described.

NCI-N87 cells = assay: T-DM1 and heregulin dose matrix cell viability, NCI-N87; format: cell-based; conditions: for cell viability: T-DM1 0 μg/ml, with MM-111 1 μM, 72 h
Experimental: Cells were allowed to adhere 16-20 hours at +37° C., 5% CO2. Cells were stimulated for 4 hours by adding 5 μl of culture media containing recombinant human NRG-1-β1 EGF domain (HRG1) bringing the final HRG1 stimulation concentration to 0, 0.313, 0.625, 1.25, 2.5, 5 or 10 nM. […] All conditions were assayed in biological quadruplicates. Cells were incubated for 72 h at +37° C., 5% CO2. Cell viability was determined by CellTiter-Glo® Luminescent Cell Viability Assay by adding 20 μl of reconstituted CellTiter-Glo reagent per well, incubating plated for 10 minutes at RT in an orbital shaker and reading the luminescence signal using Biotek™ Synergy H1 Hybrid Reader.

ErbB2 and ErbB3 = assay: Affinity of MM-111 antigen-binding sites
phospho-ErbB3 (pErbB3) [2] = format: cell-based; conditions: up to 24 hours incubation
Experimental: as §1
Model-generated dose-response curves overlay the experimental data (FIG. 7a). […] Untreated and heregulin-stimulated cells were probed for pErbB3 and pAKT and the IC50 was calculated (FIG. 7b).
as §2

phospho-AKT (pAKT) = assay: Cell signaling assay, pAKT ELISA, ZR75-30; format: cell-based; conditions: ZR75-30 cells, stimulation with 5 nM heregulin for 10 min; read-out: IC50, reduction of pAKT levels
Experimental: as §1, §2

Substance	pIC50 (phospho-ErbB3 (pErbB3) [1])	cell viability (NCI-N87 cells; HRG 0 nM)	cell viability (NCI-N87 cells; HRG 0.313 nM)	cell viability (NCI-N87 cells; HRG 0.625 nM)	cell viability (NCI-N87 cells; HRG 1.25 nM)	cell viability (NCI-N87 cells; HRG 2.5 nM)	cell viability (NCI-N87 cells; HRG 5 nM)	cell viability (NCI-N87 cells; HRG 10 nM)	affinity of ErbB2 antigen-binding site relative to ErbB3 antigen-binding site (ErbB2 and ErbB3)	inhibition of heregulin-induced ErbB3 activation relative to lapatinib (phospho-ErbB3 (pErbB3) [2])	pIC50 (phospho-AKT (pAKT))	activity of T-DM1 with exogenous HRG (NCI-N87 cells; HRG 0.313-10 nM)
MM-111	8.30	100 % of control	101.4158 % of control	105.024 % of control	110.2781 % of control	118.0867 % of control	126.5145 % of control	146.1417 % of control	about 30 times	superior to lapatinib by greater than an order of magnitude	8.40	–
ado-trastuzumab emtansine [T-DM1, reference compound]	–	–	–	–	–	–	–	–	–	–	–	exogenous HRG decreases the activity of T-DM1
